# Columns and labels:
# Format in all cases: biochemical
# [1] = molecular target: T1, polymorphonuclear leucocyte elastase from human sputum (Homo sapiens, UniProt P08246); assay: Assay for elastase inhibitory activity (Example 35); settings: enzyme 2 × 10^-8 M, substrate 3.0 × 10^-4 M
# T1 construct: Polymorphonuclear leukocyte elastase from human sputum (EPC Co; Funakoshi Yakuhin); purchased EPC Co. (via Funakoshi Yakuhin); host or cells: human sputum
# T1 sequence (P08246 30-267): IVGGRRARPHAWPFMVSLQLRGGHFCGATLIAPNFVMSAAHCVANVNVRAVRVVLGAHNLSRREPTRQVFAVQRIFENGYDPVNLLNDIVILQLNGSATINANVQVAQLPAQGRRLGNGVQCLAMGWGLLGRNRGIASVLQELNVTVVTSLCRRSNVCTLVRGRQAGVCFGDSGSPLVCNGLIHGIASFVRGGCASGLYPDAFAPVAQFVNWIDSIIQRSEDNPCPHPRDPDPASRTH
# Experimental: (§1) Assay method used was as follows.
# (§2) Buffer: 0.1M (2-hydroxyethyl)piperazine-N'-2-ethansulfonic acid (HEPES), 0.5M NaCl, pH 7.5.
# (§3) Enzyme concentration: the following enzyme was dissolved in the above-mentioned buffer to a concentration 9 times that shown in Table 22.
# (§4) A. Polymorphonuclear leucocyte elastase from human sputum (EPC Co., Funakoshi Yakuhin)
# Substrate solution: for the enzymes A, B, C, D and E, the following substrate a, b, c, d or e, respectively, was dissolved in a solution of DMSO +the above-mentioned buffer (1:9) (note, final concentration of DMSO was 10% in the buffer) to a concentration of 9 times that shown in Table 22.
# (§5) a. MeO-Suc-Ala-Ala-Pro-Val-pNA (Bachem) […]
# (§6) To wells of an ELISA 96-well microtiter plate, were added 120 μl of the buffer and the 20 μl of a sample solution of (Arg^58 -Ala^107) SLPI obtained in Example 34, followed by 20 μl of the enzyme solution. The mixture was reacted at 37° C. for 10 minutes. Next, 20 μl of the substrate was added, and developed at 37° C. The developed color was measured by absorption at 405 nm.
# (§7) As a control the same procedure was carried out using SLPI.
# Bovine spleen trypsin = molecular target: T2, Bovine spleen trypsin (Bos taurus, UniProt P00760); assay: Assay for trypsin inhibitory activity (Example 35); settings: enzyme 2 × 10^-7 M, substrate 1.0 × 10^-3 M
# T2 construct: purchased Sigma
# T2 sequence (P00760 24-246): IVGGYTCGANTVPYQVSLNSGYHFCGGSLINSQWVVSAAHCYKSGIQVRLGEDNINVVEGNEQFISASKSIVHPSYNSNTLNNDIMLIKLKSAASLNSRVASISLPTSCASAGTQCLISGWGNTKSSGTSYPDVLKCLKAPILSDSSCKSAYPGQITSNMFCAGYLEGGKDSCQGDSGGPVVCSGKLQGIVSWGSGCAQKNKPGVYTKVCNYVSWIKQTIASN
# Experimental: as §1, §2, §3
# B. Bovine spleen trypsin (Sigma)
# Substrate solution: for the enzymes A, B, C, D and E, the following substrate a, b, c, d or e, respectively, was dissolved in a solution of DMSO +the above-mentioned buffer (1:9) (note, final concentration of DMSO was 10% in the buffer) to a concentration of 9 times that shown in Table 22. […]
# as §6, §7
# Human plasma thrombin = molecular target: T3, Human plasma thrombin (Homo sapiens, UniProt P00734); assay: Assay for thrombin inhibitory activity (Example 36); settings: final concentration up to ×10^-5 M; enzyme 3 × 10^-9 M
# T3 construct: (5) Human plasma thrombin (Kabi, Daiichi Kagaku Yakuhin); purchased Kabi (via Daiichi Kagaku Yakuhin); host or cells: human plasma
# Experimental: F. Human plasma thrombin (Sigma)
# (§8) Thrombin and FXa: 50 mM Tris-HCl, 7.5 mM EDTA-2Na, 175 mM NaCl (pH 8.4) […]
# (§9) Substrate solution: for the enzymes F, G, H and I, the following substrate f, g, h or i, respectively, was dissolved to a final concentration shown in Table 24.
# f. H.D-Phe-Pip-Arg-pNA (Kabi Vitrum)
# (§10) To wells of an ELISA 96-well microtiter plate, were added a solution of (Arg^58 -Ala^107) SLPI obtained in Example 34 and then the enzyme solution, and the mixture was incubated at 37° C. for 10 minutes. Next, the substrate solution was added to develop the color, whose absorption was then measured at 405 nm. As a control, SLPI was used.
# Human plasma plasmin = molecular target: T4, Human plasma plasmin (Homo sapiens, UniProt P00747); assay: Assay for plasmin inhibitory activity (Example 36); settings: final concentration up to ×10^-5 M; enzyme 1.0 × 10^-7 M
# T4 construct: (6) Human plasma plasmin (Kabi, Daiichi Kagaku Yakuhin); purchased Kabi (via Daiichi Kagaku Yakuhin); host or cells: human plasma
# T4 sequence (P00747 581-810 limits assumed): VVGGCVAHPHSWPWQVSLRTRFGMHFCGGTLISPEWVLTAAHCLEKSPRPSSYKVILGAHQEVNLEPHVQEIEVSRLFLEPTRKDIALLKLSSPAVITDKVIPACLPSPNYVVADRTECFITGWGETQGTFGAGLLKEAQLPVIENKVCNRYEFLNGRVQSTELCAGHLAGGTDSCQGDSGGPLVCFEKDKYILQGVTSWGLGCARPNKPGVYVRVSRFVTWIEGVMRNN
# T4 sequence (P00747 97-580 partner limits assumed): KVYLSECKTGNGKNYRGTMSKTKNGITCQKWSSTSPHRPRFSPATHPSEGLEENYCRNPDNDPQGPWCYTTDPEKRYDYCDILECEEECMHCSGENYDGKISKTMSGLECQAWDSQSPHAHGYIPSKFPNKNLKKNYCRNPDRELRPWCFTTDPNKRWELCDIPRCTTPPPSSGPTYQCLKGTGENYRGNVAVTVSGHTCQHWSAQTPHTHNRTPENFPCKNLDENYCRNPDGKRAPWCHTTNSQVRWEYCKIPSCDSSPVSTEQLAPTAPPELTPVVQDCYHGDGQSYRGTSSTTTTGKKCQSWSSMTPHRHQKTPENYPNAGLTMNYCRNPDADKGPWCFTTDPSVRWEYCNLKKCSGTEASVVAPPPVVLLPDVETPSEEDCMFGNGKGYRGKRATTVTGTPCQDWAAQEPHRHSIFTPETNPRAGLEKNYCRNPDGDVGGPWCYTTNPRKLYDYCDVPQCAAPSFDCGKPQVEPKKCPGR
# Experimental: G. Human plasma plasmin (sigma)
# Plasmin: 50 mM Tris-HCl, 100 mM NaCl (pH 7.4) […]
# as §9
# g. H.D-Val-Leu-Lys-pNA (Kabi Vitrum)
# as §10
# Human plasma kallikrein = molecular target: T5, Human plasma kallikrein (Homo sapiens, UniProt P03952); assay: Assay for kallikrein inhibitory activity (Example 36); settings: final concentration up to ×10^-5 M; enzyme 1.0 × 10^-7 M
# T5 construct: (7) Human plasma kallikrein (Kabi, Daiichi Kagaku Yakuhin); purchased Kabi (via Daiichi Kagaku Yakuhin); host or cells: human plasma
# T5 sequence (P03952 391-638 limits assumed): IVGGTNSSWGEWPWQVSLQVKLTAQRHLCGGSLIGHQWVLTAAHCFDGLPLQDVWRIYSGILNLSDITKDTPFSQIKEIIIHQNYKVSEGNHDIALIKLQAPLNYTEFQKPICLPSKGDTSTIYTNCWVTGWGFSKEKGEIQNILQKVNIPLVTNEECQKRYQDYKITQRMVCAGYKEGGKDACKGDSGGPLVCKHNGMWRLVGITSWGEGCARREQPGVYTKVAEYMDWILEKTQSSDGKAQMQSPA
# T5 sequence (P03952 20-390 partner limits assumed): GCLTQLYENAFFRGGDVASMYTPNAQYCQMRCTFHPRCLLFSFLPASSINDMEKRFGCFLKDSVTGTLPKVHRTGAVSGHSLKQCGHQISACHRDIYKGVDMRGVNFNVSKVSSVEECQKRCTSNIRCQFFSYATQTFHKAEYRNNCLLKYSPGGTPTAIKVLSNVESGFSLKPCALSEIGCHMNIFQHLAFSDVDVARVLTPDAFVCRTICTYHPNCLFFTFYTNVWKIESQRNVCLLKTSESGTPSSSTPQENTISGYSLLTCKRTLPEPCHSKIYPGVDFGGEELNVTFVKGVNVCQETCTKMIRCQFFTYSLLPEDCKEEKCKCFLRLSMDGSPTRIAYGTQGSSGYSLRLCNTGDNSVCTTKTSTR
# Experimental: H. Human plasma kallikrein (Protogene, Funakoshi Yakuhin)
# Kallikrein: 50 mM Tris-HCl, 361 mM NaCl, 0.01 mg/ml Polybrene (pH 7.8) […]
# as §9
# h. H.D-Pro-Phe-Arg-pNA (Kabi Vitram)
# as §10
# Porcine FXa = assay: Assay for Fxa inhibitory activity (Example 36); settings: final concentration up to ×10^-5 M; enzyme 1.0 × 10^-8 M
# Experimental: I. Porcine FXa (Daichi Seiyaku)
# as §8, §9
# i. Ratio 1:1 mixture of the following compounds: [drawing 6]
# as §10
# [2] = test system: polymorphonuclear leucocyte elastase from human sputum; assay: Inhibitory constant (Ki) assay, elastase (Example 37); settings: from Table 26
# Experimental: Method for assay is as follow.
# Buffer: 0.1M N-(2-hydroxyethyl)piperazine-N'-2-ethanesulfonic acid (HEPES), 1.0M NaCl, 0.1% polyethylene glycol (pH 7.5)
# Enzyme solution: the following enzyme was dissolved in the above-mentioned buffer to a concentration 9 times that shown in Table 25.
# as §4
# Substrate solution: for the enzymes A and B, the following substrate a or b was dissolved in a solution of DMSO+the above-mentioned buffer (1:9), or in DMSO, respectively.
# as §5
# To wells of an ELISA 96-well microtiter plate, were added 120 μl of the buffer, 20 μl of a sample solution of ([…] -Ala^107) SLPI obtained in Example 25, and 20 μl of the enzyme solution in this order, an the mixture was reacted at 37° C. for 1 hour. Next, 20 μl of the substrate was added to develop at 25° C. Absorption of the developed color was measured at 405 nm. As a control, SLPI was used.
# On the basis of the result thus obtained, an inhibitory constant (Ki) of (Arg^58 -Ala^107) SLPI of the present invention was calculated according to the method of Henderson (Henderson, P. J. F. (1972), Biochem. J. 127, 321-333).
substance,measurement,setting,value
(Arg^58 -Ala^107) SLPI: polypeptide having an amino acid sequence starting with the 58th Arg and ending at the 107th Ala of SLPI (RRKPGKCPVTYGQCLMLNPPNFCEMDGQCKRDLKCCMGMCGKSCVSPVKA),IC50,[1],12 nM
same,IC50,Bovine spleen trypsin,2000 nM
same,inhibitory activity to thrombin,Human plasma thrombin,did not exhibit inhibitory activity
same,inhibitory activity to plasmin,Human plasma plasmin,did not exhibit inhibitory activity
same,inhibitory activity to kallikrein,Human plasma kallikrein,did not exhibit inhibitory activity
same,inhibitory activity to FXa,Porcine FXa,did not exhibit inhibitory activity
same,relative ratio of inhibitory activity on trypsin to that on elastase (Ki(T)/Ki(E)),[2],"about 12,000"
